Values of other authors as cited in article PMC10531186.

Target: uPA (Mus musculus) (UniProt P06869)
Sequence of UniProt P06869 (P06869 21-433): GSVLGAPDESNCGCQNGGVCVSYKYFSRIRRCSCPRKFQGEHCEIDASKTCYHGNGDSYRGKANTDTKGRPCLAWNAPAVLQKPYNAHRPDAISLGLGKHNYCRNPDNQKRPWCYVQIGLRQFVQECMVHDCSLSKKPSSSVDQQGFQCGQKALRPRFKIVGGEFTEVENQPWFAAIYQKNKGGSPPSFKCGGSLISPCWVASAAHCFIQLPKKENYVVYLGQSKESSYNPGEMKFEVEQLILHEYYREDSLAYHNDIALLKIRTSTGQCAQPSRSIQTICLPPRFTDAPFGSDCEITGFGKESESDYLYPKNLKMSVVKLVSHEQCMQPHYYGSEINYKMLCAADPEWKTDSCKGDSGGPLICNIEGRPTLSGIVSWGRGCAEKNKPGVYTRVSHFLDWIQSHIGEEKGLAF

mupain-1
Ki: 185 nM
